± gives the uncertainty stated by the source.

The series can be described thus: abundance fitness (aPCA) (normalised: wild type 0, dead -1); higher = more abundant; growth selection in yeast, the domain comes from the species named. The note with it: Homo sapiens.
Substance “SAFB-like transcription modulator L30N, Q9NWH9” yielded an abundance fitness of -0.267 ± 0.19. The figure for “SAFB-like transcription modulator L30P, Q9NWH9” is -0.716 ± 0.067; for “SAFB-like transcription modulator L30Q, Q9NWH9” it is -0.959 ± 0.17; for “SAFB-like transcription modulator L30R, Q9NWH9” it is -0.949 ± 0.056. The substance “SAFB-like transcription modulator L30S, Q9NWH9” had an abundance fitness of -0.776 ± 0.058.

“SAFB-like transcription modulator L30T, Q9NWH9” gave an abundance fitness of -0.936 ± 0.11. “SAFB-like transcription modulator L30V, Q9NWH9”: the abundance fitness was -0.295 ± 0.05. In the case of “SAFB-like transcription modulator L30W, Q9NWH9”, the abundance fitness was -0.748 ± 0.098. Turning to “SAFB-like transcription modulator L30Y, Q9NWH9”, the abundance fitness is -1 ± 0.13. The figure for “SAFB-like transcription modulator L34A, Q9NWH9” is -0.767 ± 0.092; for “SAFB-like transcription modulator L34C, Q9NWH9” it is -0.496 ± 0.1. “SAFB-like transcription modulator L34D, Q9NWH9” yielded an abundance fitness of -0.414 ± 0.12. The figure for “SAFB-like transcription modulator L34E, Q9NWH9” is -0.594 ± 0.087; for “SAFB-like transcription modulator L34F, Q9NWH9” it is -0.945 ± 0.2; for “SAFB-like transcription modulator L34G, Q9NWH9” it is -0.829 ± 0.043. “SAFB-like transcription modulator L34H, Q9NWH9” yielded an abundance fitness of -0.465 ± 0.38. “SAFB-like transcription modulator L34I, Q9NWH9”: the abundance fitness is -1 ± 0.31.

Regarding “SAFB-like transcription modulator L34K, Q9NWH9”, the abundance fitness is -0.864 ± 0.078. Take “SAFB-like transcription modulator L34M, Q9NWH9”: the abundance fitness was -0.678 ± 0.1. In the case of “SAFB-like transcription modulator L34N, Q9NWH9”, the abundance fitness is -0.964 ± 0.45. Next, “SAFB-like transcription modulator L34P, Q9NWH9”: -0.8 ± 0.084; “SAFB-like transcription modulator L34Q, Q9NWH9”: -0.673 ± 0.057; “SAFB-like transcription modulator L34R, Q9NWH9”: -0.969 ± 0.069. The figure for “SAFB-like transcription modulator L34S, Q9NWH9” is -0.778 ± 0.038; for “SAFB-like transcription modulator L34T, Q9NWH9” it is -0.831 ± 0.067; for “SAFB-like transcription modulator L34V, Q9NWH9” it is -0.614 ± 0.068. Take “SAFB-like transcription modulator L34W, Q9NWH9”: the abundance fitness was -1.01 ± 0.057.

“SAFB-like transcription modulator L39A, Q9NWH9”: the abundance fitness is -0.498 ± 0.069.

“SAFB-like transcription modulator L39C, Q9NWH9” registered an abundance fitness of -0.446 ± 0.079. For the substance “SAFB-like transcription modulator L39D, Q9NWH9”, the abundance fitness was -0.755 ± 0.075.

Substance “SAFB-like transcription modulator L39E, Q9NWH9” showed an abundance fitness of -0.365 ± 0.054. In turn, “SAFB-like transcription modulator L39F, Q9NWH9” showed an abundance fitness of -0.409 ± 0.077. On to “SAFB-like transcription modulator L39G, Q9NWH9”, for which the abundance fitness is -0.475 ± 0.045. “SAFB-like transcription modulator L39H, Q9NWH9” showed an abundance fitness of -0.275 ± 0.081. Next, “SAFB-like transcription modulator L39I, Q9NWH9”: -0.231 ± 0.074. As to “SAFB-like transcription modulator L39K, Q9NWH9”, the abundance fitness is -0.179 ± 0.046. “SAFB-like transcription modulator L39M, Q9NWH9” came in with an abundance fitness of 0.017 ± 0.047. Substance “SAFB-like transcription modulator L39N, Q9NWH9” showed an abundance fitness of -0.596 ± 0.12. In turn, “SAFB-like transcription modulator L39P, Q9NWH9” showed an abundance fitness of -0.81 ± 0.067. In the case of “SAFB-like transcription modulator L39Q, Q9NWH9”, the abundance fitness was -0.499 ± 0.11. The substance “SAFB-like transcription modulator L39R, Q9NWH9” showed an abundance fitness of -0.296 ± 0.05. The figure for “SAFB-like transcription modulator L39T, Q9NWH9” is -0.631 ± 0.043. The figure for “SAFB-like transcription modulator L39V, Q9NWH9” is -0.356 ± 0.059. Next, “SAFB-like transcription modulator L39W, Q9NWH9”: -0.591 ± 0.084; “SAFB-like transcription modulator L39Y, Q9NWH9”: -0.305 ± 0.038. “SAFB-like transcription modulator L48A, Q9NWH9”: the abundance fitness is -0.432 ± 0.053. Take “SAFB-like transcription modulator L48C, Q9NWH9”: the abundance fitness was -0.51 ± 0.042. Substance “SAFB-like transcription modulator L48D, Q9NWH9” returned an abundance fitness of -0.274 ± 0.071. “SAFB-like transcription modulator L48E, Q9NWH9” displayed an abundance fitness of -0.478 ± 0.086. The figure for “SAFB-like transcription modulator L48F, Q9NWH9” is -0.886 ± 0.062.

Take “SAFB-like transcription modulator L48G, Q9NWH9”: the abundance fitness is -0.472 ± 0.054. Next, “SAFB-like transcription modulator L48H, Q9NWH9”: -0.52 ± 0.059; “SAFB-like transcription modulator L48I, Q9NWH9”: -0.513 ± 0.063. The substance “SAFB-like transcription modulator L48K, Q9NWH9” showed an abundance fitness of -0.371 ± 0.055. Turning to “SAFB-like transcription modulator L48M, Q9NWH9”, the abundance fitness was -0.075 ± 0.04. On to “SAFB-like transcription modulator L48N, Q9NWH9”, for which the abundance fitness is -0.489 ± 0.043.

Substance “SAFB-like transcription modulator L48P, Q9NWH9” had an abundance fitness of -0.489 ± 0.048. The figure for “SAFB-like transcription modulator L48R, Q9NWH9” is -0.537 ± 0.043; for “SAFB-like transcription modulator L48S, Q9NWH9” it is -0.585 ± 0.039. The figure for “SAFB-like transcription modulator L48T, Q9NWH9” is -0.538 ± 0.043; for “SAFB-like transcription modulator L48V, Q9NWH9” it is -0.607 ± 0.054; for “SAFB-like transcription modulator L48W, Q9NWH9” it is -0.613 ± 0.04. In turn, “SAFB-like transcription modulator L48Y, Q9NWH9” gave an abundance fitness of -0.788 ± 0.043. For “SAFB-like transcription modulator L52A, Q9NWH9”, the abundance fitness was -0.702 ± 0.04. Regarding “SAFB-like transcription modulator L52C, Q9NWH9”, the abundance fitness was -0.827 ± 0.12. “SAFB-like transcription modulator L52D, Q9NWH9” showed an abundance fitness of -0.497 ± 0.05. Substance “SAFB-like transcription modulator L52E, Q9NWH9” showed an abundance fitness of -0.456 ± 0.15.

Take “SAFB-like transcription modulator L52F, Q9NWH9”: the abundance fitness was -0.568 ± 0.12. As to “SAFB-like transcription modulator L52G, Q9NWH9”, the abundance fitness is -0.611 ± 0.048.

For “SAFB-like transcription modulator L52M, Q9NWH9”, the abundance fitness was -0.456 ± 0.1. Substance “SAFB-like transcription modulator L52N, Q9NWH9” gave an abundance fitness of -0.385 ± 0.23.

In turn, “SAFB-like transcription modulator L52P, Q9NWH9” yielded an abundance fitness of -0.467 ± 0.12. The figure for “SAFB-like transcription modulator L52Q, Q9NWH9” is -0.927 ± 0.45; for “SAFB-like transcription modulator L52R, Q9NWH9” it is -0.808 ± 0.057. For the substance “SAFB-like transcription modulator L52S, Q9NWH9”, the abundance fitness is -0.563 ± 0.087.

In the case of “SAFB-like transcription modulator L52T, Q9NWH9”, the abundance fitness is -0.642 ± 0.16. The substance “SAFB-like transcription modulator L52V, Q9NWH9” had an abundance fitness of -0.412 ± 0.077. “SAFB-like transcription modulator L52W, Q9NWH9” gave an abundance fitness of -1.15 ± 0.14. “SAFB-like transcription modulator L52Y, Q9NWH9”: the abundance fitness was -0.651 ± 0.17. In turn, “SAFB-like transcription modulator L68A, Q9NWH9” displayed an abundance fitness of 0.219 ± 0.15.

In the case of “SAFB-like transcription modulator L68C, Q9NWH9”, the abundance fitness is -0.092 ± 0.097. In turn, “SAFB-like transcription modulator L68F, Q9NWH9” had an abundance fitness of -0.164 ± 0.09. Turning to “SAFB-like transcription modulator L68G, Q9NWH9”, the abundance fitness was -0.165 ± 0.086. Next, “SAFB-like transcription modulator L68H, Q9NWH9”: 0.053 ± 0.29; “SAFB-like transcription modulator L68I, Q9NWH9”: 0.295 ± 0.089; “SAFB-like transcription modulator L68M, Q9NWH9”: -0.188 ± 0.061. “SAFB-like transcription modulator L68P, Q9NWH9” yielded an abundance fitness of 0.022 ± 0.062.

As for “SAFB-like transcription modulator L68Q, Q9NWH9”, the abundance fitness was -0.14 ± 0.075. The figure for “SAFB-like transcription modulator L68R, Q9NWH9” is -0.165 ± 0.067; for “SAFB-like transcription modulator L68S, Q9NWH9” it is -0.16 ± 0.063. “SAFB-like transcription modulator L68T, Q9NWH9” registered an abundance fitness of -0.135 ± 0.065.

For the origin of these results see the Human Domainome abundance scans (Beltran et al. 2025).
